Data from the nanobody polyreactivity screen of Harvey et al. (2022).

Assay: yeast display, Sf9 membrane polyspecificity reagent, FACS + sequencing; frameworks hold sequencing errors
Outline: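 A nanobody's polyreactivity label depends on the gate it was sorted from. Yeast display cells were stained with 10% biotinylated, detergent-solubilized Sf9 membrane reagent for 1 hour at 4 °C, enriched on streptavidin microbeads and sorted by FACS. The low and high (top ~1%) gates were set on anti-HA fluorescence for expression and streptavidin fluorescence for reagent binding.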

Row | Sequence | polyreactivity (PSR sort gate)
1 | QVQLVESGGGLVQAGGSLRLSCAASGSTYEIYAMGWYRQAPGKDRELVAAISSGGSTNYADSVKGRFTISRDNAKNTVYLQMNSLKPEDTAVYYCVYAIQFDYWGQGTQVTVSS | low polyreactivity
2 | QVQLVESGGGLVQAGGSLRLSCAASGRIFGVYAMGWYRQAPGKERELVADISWSADSTYYADSVKGRFTISRDNAKNTVYLQMNSLKPEDTAVYYCAADALFNVQNSRGYDYWGQGTQVTVSS | low polyreactivity
3 | QVQLVESGGGLVQAGGSLRLSCAASGRIFQYYDMGWYRQAPGKERELVAAITFSGGSTYYADSVKGRFTISRDNAKNTVYLLMNSLKPEDTAVYYCARGYWVYYPDGDYWGQGTQVTVSS | low polyreactivity
4 | QVQLVESGGGLVQAGGSLRLSCAASGIIFTYYAMGWYRQAPGKEREFVAAISNGGSNTRYADSVKGRFTISRDNAKNTVYLQMNSLKPEDTAVYYCAARAYQHYNWGQGTQVTVSS | high polyreactivity
5 | QVQLVESGGGLVQAGGSLRLSCAASGRTSSINAMGWYRKAPGKERELVAVITGGGRTSYADSVKGRFTISRDNAKNTVYLQMNSLKPEDTAVYYCNATRSYYGYYYWGQGTQVTVSS | high polyreactivity
6 | QVQLVESGGGLVQAGGSLRLSCAASGITFYTYVMGWYRQAHGKERELVAAITNADSTYYADSVKGRFTISRDNAKNTVYLQMNSLKPEDTAVYYCAADWYWGGIVDSWGQGTQVTVSS | high polyreactivity
7 | QVQLEESCGGLVQAGGSHRLSCAASGSTIYNNAMGWYRQAPRKERELVAAISSGGGITYYADSVKGRFTISRDNAKNSVYLQMNSLKPEDTAVYYCNARRIYLGYNYWGQGTQVTVSS | high polyreactivity
8 | QVQLVESGGGLVQAGGSLRLSCAASGITFDSYAMGWYRQAPGKERELVATISRSGTTTYYADSVKGRFTISRDNAKNTVYLQMNSLKPEDTAVYYCNTLRAYWTYHFYGAVRDGYDYWGQGTQVTVSS | low polyreactivity
9 | QVQLVESGGGLVQAGGSLRLSCAASGSIFKYYAKGWYRQAPGKERELVAAITIGGNTNYADSVKGRFTISRDNAKNTVYLQMNSLKPEDTAVYYCATGGYYSAIVYGGYDYWGHGTQVTVSS | low polyreactivity
10 | QVQLVESRGGLVQAGGSLRLSCAASVRTFQKNTMGWYRQAPGKERELVAAIDYSATSTYYADSVKGRFTISRDNAKNTVYLQMNSLKPEDTAVYYCAARWSYPRWEFDYWGQGTQVTVSS | high polyreactivity
11 | QVQLVESGGGLVQAGGSLRLSCAASGSIFGYNSMGWDRQAAGKERELVAAIYSGGNTYYADSVKGRFTISRDNAKNTVYLQMNSLKPEDTAVYYCAADGYDDSTSRWYEYWGQGSQVTVSS | low polyreactivity
12 | QVQLVESGGGLVQAGGSLRLSCAASGSIFFYNVMGWYRQAPGKERELVAAITRSGGRTYYADSVKGRFTISRDNAKNNVYLQMNSLKPEDTAVYYCAAALGGKFDYWGQGTQVTVSS | high polyreactivity
13 | QVQHVESGGGLVQAGGSLRLSCAASGLTFANYVMGWYRQAPGKERELVASISISGGSTYYADSVKGRFTISRDNAKNTVYLQMNSLKPEDTAVYYCAASFVSSYQYDYWGQGTQVTVSS | high polyreactivity
14 | QVQLGESGGGLVQAGGSLRLSCAASGSIFSRYTMGWYREAPGKERELVAAITSSGGRTYYADSVKGRFTISRDNAKNTVYLQMNRLKAEDTAVYYCAARYFSSFPLYYYWGQGTQVTVSS | high polyreactivity
15 | QVQLVESGGGLVQAGGSLRLSCSPSGSIFVSYTMGWYRQAPGKERELVAAISSGGSTYYADSVKGRFTITRDNAKNTVYLQMNSLKPEDTAVYYCARRLTREYDYWGQGTQVTVSS | low polyreactivity
16 | QVQLVESGGGLVQAGGSLRLSCAASGRTFIANAMGWYRKAPRKERELLAVITLNGGSTYYADSVKGRFTISRDNAKKTVYLQMNSLKPEDTAVYYCNARYYPLYSKSYDSWGQGTQVPVSS | low polyreactivity
17 | QVQLVESGGGLVQAGGSLRLSCAASGFTFSLYAMGWYRQAPGKEWEVVAAISSRGGTTYYADSVKGRFTISRDNAKNTVYLQMNILKAEDTAVYYCAARYVYTRSAFDYWGQGTQVTVSS | high polyreactivity
18 | QVKLVESGGGLVQAGGSLRLSCAASGSIFQGYAMGWYRQAPGKERELVAAISGRGGSTYYADSVKGRFTISRDNAKNTVYLQMNSLKPEDTAVYYCNAPRYYWISFARWPASYYYWGQGTQVTVSS | high polyreactivity
19 | QVQLVESGGGLVQAGGSLRLSCAASGFIFWGNTMVWYRQAPGKERELVAAITYSGGSTYYADSVKGRFTISRDNAKNTVYLQMNSLKPEDTAVYYCNKVFVYRGDYWGQGSQVTVSS | high polyreactivity
20 | QVQLVESGGGLVQAGGSLRLSCAASGSTFWYYAMGWSRQAPGKERELVADITYSGVSTYYADSVKGRFTISRDNAKNTVYLQMNSLKPEDTAVYYCNAVWGSVKGYSGYYYWGPGTQVTVSS | low polyreactivity
21 | QVQLVESGGGLVQAGGSLRLSCAASGIIFIKYAMGWYRQAPGKERELVAGINVSSGGDTYADSVKGRFTISRDNAKNTVYLQMNSLKPEDTAVYYCNAGTGGPDYVFITEYDYWGQGTQVTVSS | low polyreactivity
22 | QVQLVESGGGLVQAGGSLRLICAASGNSYIYNAMGSYRQAPGKEMELVAAISSRGGTTSDAVSVKGRFTISRDHAKNTVYFQMNSLKPEDTAVYYCAARQVVPSYRYPYGYWGQGTQVTVSS | high polyreactivity

Row | Sequence | polyreactivity (PSR sort gate)
23 | QVQLVESGGGLVQAGGCLRLSCAASGFTFKTYAMGWYRQAPGKEREFVAAITTRVGSTYYADSVKGRFSISRDNAKNTVYLQMISLKPEDTAVYYCNYNFNYPYYRYGYWGQGTQVTVSS | high polyreactivity
24 | QVQLVESGGGLVQAGGSLRLSCAASGRIFSRKTMGWYRQAPGKEREFVAAISQSGGRTYYADSVKGRFTISRDNAKNTVYLQMNSLKPEDTAVYYCNAQFARSSGFNYWGQGTQVTVSS | high polyreactivity
25 | QVQLVESGGGLVQAGGSLRLSCAASGSTFSPNAMGWYRQAPGKERELVAAITGGGSTYADSVKGRFTISRDNAKNTVYLQMNSLKPEDTAVYYCNRDYRSDLGYADQSWTDQYDYWGQGTQVTVSS | low polyreactivity
26 | QVQLVESGGGLVQAGGSLRLSCAASGYTFPQYAMGWYRQAPGKERELVAAITRRGGSTYYADSVKGRFTISRDNAKNTVYLQMNSLKPEDSAVYNCAADSYPYSHGGDYWGQGTQVTVSS | high polyreactivity
27 | QVQLVESGGGLVQAGGSLRLSCAASGRIFKVNTMGWYRQAPGKVRELVASIRGGGSTNYADSVKGRFTISRDNAKNTVYLQMNSLKPEDTAVYYCAAGTSKPTPIYGYWGQGTQVTGSS | low polyreactivity
28 | QVQLVESGGGLVQAGGSLRLSCADSGFTFYFYAMGWYRQAPGKEREFIATINFISGSTYYADSVKGGVTISRDNAKNTVYLQMNSLKPEDTAVYYCNKPFPYYPDGPNGYDYWGQGTQVTVSS | low polyreactivity
29 | QVQLVESGGGLVQAGGSLRLSCAASGFTFGWNAMGWYRQAPGKERELVAAITSGGITNYADSVKGRFTISRDNAKNTVYLQMNSLKPEDTAVYYCNARPTSRRSWYYWKGYDYWGQGTQVTVSS | high polyreactivity
30 | QVQLVESGGGLVQAGGSLRLRCASSGRTFRYNAMGWYRQAPGKERELVATISSSGGSTSYADSVKGRFTISRDNAKKTVYLQMNSLKPEDTAVYYCNKRRLVAAGNGMDSWGQGTQVTVSS | low polyreactivity
31 | QVQLVESGGGLVQAGGSLRLSCAASGIIFNHYAMGWYGQAPGKERELVAAISRRGGSTYDADSVKGRFTISRDNAKNTVYLQMNSLKPEDTAVYYCNDRSFATGSKVPARGYWGQGTQVTVSS | high polyreactivity
32 | QVQLVESGGGLVQAGGSLRLSCAASGSIFHYYTMGWYRQAPGKERELVAGISRSGTSTFYADSVKGRFTISRDNAKKTVYLQMNSLKPEDTAVSYCNAYSPGSYYYWPYDYWGQGTQVTVSS | high polyreactivity
33 | QVQLVESGGGLVQAGGSLRLSCAASGSTFYANAKGWYRQAPGKERELVAAISSTGGSTYYADSVKGRFTISRDNAKNTVYLQMNSLKPEDTAVYYCAARARWIVAYDLGYWGQGTQVTVSS | low polyreactivity
34 | QVQLVESGGGLVQAGGSLRLSCAASGSTFYGYAMGWYRQAPGKERELVAAIRSGGRTYYADSVKGRFTISRDNAKNTVYLQMNSLKPEDTAVYYCNARSFNYRTFGGKMGYWGQGTQVTVSS | high polyreactivity
35 | QVQLVESGGGLVQAGGSLRLSCAASGNTFVRYAMGWYRQAPGKERELVAAITRSGSSTYYADSVKGRFTISRDNAKNTVYLQMNSLKPEDTAVYYCAAYSWYYAGYDYWGQGTQVTVSS | high polyreactivity
36 | QVQLVESGGGLVQAGGSLRLSCAASGSTFYTYTMGWYRQAPGKERELVAAISTRGGSTYYADSVKGRFTISRDNAKNTVYLQMNCLKPEDTAVYYCAAVYRRGSGYDYWGQGNQVTVSS | high polyreactivity
37 | QVQLVESGGGLDQAGGSLRLSCAASGSTFKWNAMGWYRQAPGKERELVAAISKGSVNTYYADSVKGRFTISRDNAKNTVYLQMNSLKPEDTAVYYCAADRRYPALDYWGQGTQVTVSS | high polyreactivity
38 | QVQLVESGGGLVQAGGSLRLSCAASGRIFRGYAMGWYRQAPGKERELVAAITSRGGSTYADSVKGRFTISRDNAKNTVYLQMNSLKPEDTAVYYCNAGYRAYSSKLVFRGYPRYDYWGQGTQVTVSS | low polyreactivity
39 | QVQLVESGGGLVQAGGSLRLSCAASGRIFPYNTMGLYRQAPGKERELVAAISRRGGSTYYADSVKGRFTISRDNAKNTVYLQMNSLKPEDTAVYYCNAVKPRDYGGLAYDYWGQGTQVTVSS | high polyreactivity
40 | QVQLVESGGGLVQAGGSLRLSCAASGYIIDNNSMAWYRQAPGKERELVASNTNSAGSTSYADSVKGRFTISRDNAKNTVYLQMNSLKPEDTAVYYCAAKRYHYFFPYSRRGAYGYWGQGTQVTVSS | high polyreactivity
41 | QVQLVESGGWLVQAGGSLRLSCAASGSTFEDYVMGWYRQAPGTEREFVAAISRGSGSTYYADSVKGRFTISRDNAKNTVFLQMNSLKPEDTAVYYCAARSQLGYRTRYPTYYWGQGTQVTVSS | high polyreactivity
42 | QVQRVESGGGLVQAGGSLRLRCAASGFIFWLYAMGWYRQAPAKERELVAAISNGGSTNYADSVKGRFTISRDNAKNTVYLQMNSLKPEDTAVYYCAAKFPRRYYWYDYWGQGTQVTVSS | high polyreactivity
43 | QVQLVESGGGLVQAGGSLRLSCAASGSTFDSNVMGWYRQAPGKERELVAAIDLSGGITYYADSVKGRFTISRDNAKNTVYLQMNSLKPEDTAVYYCATDEGYRYPHVDLTEVYYWGQGTQVTVSS | low polyreactivity
